Experiments:
[1] = target: Kv2.1 subunit (unlabeled) (human) (UniProt Q14721)
[2] = target: CFP-tagged N-terminal Kv6.4 fragment (human); test: FRET or BRET; acceptor (YFP) photobleaching FRET in HEK293 cells co-transfected with CFP- and YFP-tagged fragments in a 1:2 cDNA ratio, 48 h after transfection; only cells with YFP/CFP intensity ratio >1
[3] = target: CFP-tagged C-terminal segment of Kv2.1 (human); test: as above
[4] = target: CFP-tagged Kv6.4 C-terminus (human); test: as above
[5] = target: CFP-tagged N-terminal Kv2.1 fragment (human); test: as above
[6] = target: CFP-tagged N-terminal Kv3.1 fragment (human); test: as above
CFP-tagged N-terminal Kv3.1 fragment (human), sequence (P48547 whole entry, the tested form may be a part): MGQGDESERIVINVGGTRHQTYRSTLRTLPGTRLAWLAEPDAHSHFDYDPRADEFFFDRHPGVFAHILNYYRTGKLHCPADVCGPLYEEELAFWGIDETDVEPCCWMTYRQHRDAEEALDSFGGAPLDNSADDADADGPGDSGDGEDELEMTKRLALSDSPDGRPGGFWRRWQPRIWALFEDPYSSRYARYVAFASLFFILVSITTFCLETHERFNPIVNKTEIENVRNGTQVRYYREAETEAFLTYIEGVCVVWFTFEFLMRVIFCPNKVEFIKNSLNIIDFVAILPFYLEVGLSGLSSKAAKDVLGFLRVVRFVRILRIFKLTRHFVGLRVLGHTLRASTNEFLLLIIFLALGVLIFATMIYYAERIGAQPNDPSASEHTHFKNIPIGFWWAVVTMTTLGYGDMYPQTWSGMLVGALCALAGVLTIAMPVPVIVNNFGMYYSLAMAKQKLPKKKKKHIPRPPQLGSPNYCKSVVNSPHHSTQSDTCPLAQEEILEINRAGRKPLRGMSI

YFP-tagged N-terminal Kv3.1 fragment (domain or fragment), sequence (P48547 whole entry, the tested form may be a part): as above
CFP-tagged N-terminal Kv6.4 fragment (human), sequence (Q8TDN1 whole entry, the tested form may be a part): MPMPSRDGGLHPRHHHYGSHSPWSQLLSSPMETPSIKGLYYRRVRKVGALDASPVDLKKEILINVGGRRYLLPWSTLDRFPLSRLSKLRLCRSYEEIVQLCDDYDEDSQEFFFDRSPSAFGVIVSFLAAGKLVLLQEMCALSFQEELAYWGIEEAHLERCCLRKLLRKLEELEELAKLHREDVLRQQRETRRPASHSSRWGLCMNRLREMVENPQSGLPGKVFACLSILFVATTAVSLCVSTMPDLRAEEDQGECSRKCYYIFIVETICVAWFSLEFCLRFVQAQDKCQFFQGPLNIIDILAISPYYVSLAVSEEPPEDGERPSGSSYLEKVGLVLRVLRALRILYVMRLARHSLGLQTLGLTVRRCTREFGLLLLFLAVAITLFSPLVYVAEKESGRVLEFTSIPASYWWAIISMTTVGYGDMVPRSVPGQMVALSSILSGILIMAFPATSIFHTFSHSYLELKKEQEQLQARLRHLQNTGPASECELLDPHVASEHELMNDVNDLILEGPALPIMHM
CFP-tagged Kv6.4 C-terminus (human), sequence (Q8TDN1 whole entry, the tested form may be a part): as above

Substance: Kv6.4(CKv3.1) chimera in which the C-terminus of Kv6.4 was replaced by the corresponding domain of Kv3.1
- midpoint of inactivation, V1/2, 1st component of the double Boltzmann fit (as of Kv2.1 homotetramers), whole-cell currents in HEK293 cells co-expressing Kv2.1 and Kv6.4(CKv3.1) [1]: -24.3 mV
- midpoint of inactivation, V1/2, 2nd component of the double Boltzmann fit, whole-cell currents in HEK293 cells co-expressing Kv2.1 and Kv6.4(CKv3.1) [1]: -71.1 mV

Substance: YFP-tagged N-terminal Kv2.1 fragment (domain or fragment)
- FRET efficiency [2]: 21.3%
- FRET efficiency [3]: 8.3%
- FRET efficiency [4]: 8.7%
- FRET efficiency [5]: 21.7%

Substance: YFP-tagged N-terminal Kv3.1 fragment (domain or fragment)
- FRET efficiency [2]: 9.6%
- FRET efficiency [6]: 28.8%
